Substitutions are numbered along the chain they refer to.
B1: Antibody MM11 (antibody, mouse IgG1, kappa, V domains shown)
VH: DVQLQESGPGLVKPSQSLSLTCSVTGYSITSNFYWNWIRQFPGNRLEWMGYISYDGSNNYNPSLKNRISISRDTSKNQFFLKLNSVTTEDTATYYCVRADYWGQGTLVTVSA
VL: DTVMTQTPLSLPVSLGDQASISCRSSQSLESSDGHAYLNWYLQKPGQSPQLLIYRVSNRFSGVLHRFSGSGSGTDFTLKISRVEAEDLGVYFCLQFTHVPFTFGSGTKLEIKR
notes: Mouse monoclonal antibody from hybridoma; also called Nectin-4 mouse monoclonal antibody MM11; mouse antibody MM11
B2: Antibody R012 (antibody, V domains shown)
VH: SKSVEESGGRLVTPGTPLTLTCTVSGFSLSTYAMSWVRQAPGKGLEYIGIISGRGTTYYASWLKGRFTISKTSTTVDLKITSPTTEDTATYFCARDAGISDVYTGYFNLWGQGTLVTVSS
VL: QPVLAQLPSASAALGASAKLTCTLSSAHRTYTIAWYQQQQGEAPRYLMMLKSDGSYTKGTGVPDRFSGSSSGADRYLIISSVQAADEADYYCGADDSGGYVFGGGTQLTVTG
notes: Rabbit monoclonal antibody from phage display; also called Nectin-4 rabbit monoclonal antibody R012; rabbit antibody R012
B3: Antibody R036 (antibody, V domains shown)
VH: SQSVEESGGRLVTPGTPLTLTCTVSGFSLSSYAMSWVRQAPGKGLEYIGIIGGRGTTYYAIWAKGRFTISKTSTTVDLKITSPTTEDTATYFCARDAGTTYVGTTYVATGYFNLWGQGTLVTVSS
VL: B2 VL with A5T, L7P, R29K, M49I, K58R, A85D
notes: Rabbit monoclonal antibody from phage display; also called Nectin-4 rabbit monoclonal antibody R036; rabbit antibody R036

Molecular target: T1, recombinant human Nectin-4 protein (human, UniProt Q96NY8 32-349)
T1 construct: Prepared in-house (Jiangsu Mabwell) by transient transfection of CHO cells; also called PVRL-4; PRR-4
T1 sequence: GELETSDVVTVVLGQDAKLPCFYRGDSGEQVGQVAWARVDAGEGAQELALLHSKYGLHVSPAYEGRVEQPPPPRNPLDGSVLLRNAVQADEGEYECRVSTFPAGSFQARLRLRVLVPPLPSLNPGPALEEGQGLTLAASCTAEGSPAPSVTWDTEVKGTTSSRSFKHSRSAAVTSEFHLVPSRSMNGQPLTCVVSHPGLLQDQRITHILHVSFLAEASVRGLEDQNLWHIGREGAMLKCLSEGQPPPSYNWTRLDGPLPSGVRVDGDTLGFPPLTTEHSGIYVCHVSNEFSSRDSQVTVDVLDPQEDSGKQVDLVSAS
Assay: ELISA, coated antigen, antibody at 1000 ng/ml
Description: (§1) Coating: Nectin-1, Nectin-2, Nectin-3, Nectin-4, Nectin-like-1, Nectin-like-2, Nectin-like-3, Nectin-like-4, and Nectin-like-5 were diluted to 5 μg/ml in coating buffer (carbonate buffer, pH 9.6) respectively. A 96-well plate was coat with 100 μl per well and incubated overnight at 2-8° C.;
(§2) Sample loading: The plate was taken out, patted dry, and washed twice with 200 μl/well of PBST, then patted dry. The Nectin-4 antibodies prepared in Example 1 (antibody MM11, antibody R012, and antibody R036) were diluted with 1% BSA/PBST to concentrations of 10 μg/ml, 1 μg/ml, 100 ng/ml, and 10 ng/ml, respectively. 1% BSA/PBST solution for dilution was set as a blank control. 100 μl per well was added to the 96-well plate, and incubated at room temperature for 2 hours;
(§3) Reaction termination and plate reading: 100 μl/well of 1 mol/L H3PO4 was added to terminate the reaction and the plated was read. The absorbances of wells in the plate at 450 nm with 650 nm as reference wavelength were read and recorded as OD_{450 nm-650 nm}.

Point of comparison: B3, OD detection value 1.64 OD450 nm-650 nm. Against it:
- B1 — higher, 2.05 OD450 nm-650 nm
- B2 — lower, 1.56 OD450 nm-650 nm

Molecular target: T2, Nectin-3 (UniProt Q9NQS3 58-404, limits assumed)
T2 construct: Bought recombinant protein; also called CD113; PVRL-3
T2 sequence (Q9NQS3 58-404 limits assumed): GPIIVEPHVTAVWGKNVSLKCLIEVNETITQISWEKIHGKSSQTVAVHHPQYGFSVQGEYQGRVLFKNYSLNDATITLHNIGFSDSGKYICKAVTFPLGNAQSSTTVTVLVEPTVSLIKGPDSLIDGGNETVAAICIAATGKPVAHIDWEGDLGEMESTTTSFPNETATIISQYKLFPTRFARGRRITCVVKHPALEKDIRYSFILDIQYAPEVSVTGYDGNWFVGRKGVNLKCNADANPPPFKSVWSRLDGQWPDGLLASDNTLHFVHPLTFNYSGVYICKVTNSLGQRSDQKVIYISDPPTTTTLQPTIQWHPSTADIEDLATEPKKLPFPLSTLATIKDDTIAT
Assay: ELISA, coated antigen, antibody at 1000 ng/ml
Description: as §1, §2, §3

Point of comparison: B1, OD detection value 0.008 OD450 nm-650 nm. Against it:
- B2 — lower, 0.007 OD450 nm-650 nm
- B3 — lower, 0.007 OD450 nm-650 nm

Molecular target: T3, Nectin-2 (UniProt Q92692 32-360, limits assumed)
T3 construct: Bought recombinant protein; also called CD112; PVRL-2
T3 sequence (looked up): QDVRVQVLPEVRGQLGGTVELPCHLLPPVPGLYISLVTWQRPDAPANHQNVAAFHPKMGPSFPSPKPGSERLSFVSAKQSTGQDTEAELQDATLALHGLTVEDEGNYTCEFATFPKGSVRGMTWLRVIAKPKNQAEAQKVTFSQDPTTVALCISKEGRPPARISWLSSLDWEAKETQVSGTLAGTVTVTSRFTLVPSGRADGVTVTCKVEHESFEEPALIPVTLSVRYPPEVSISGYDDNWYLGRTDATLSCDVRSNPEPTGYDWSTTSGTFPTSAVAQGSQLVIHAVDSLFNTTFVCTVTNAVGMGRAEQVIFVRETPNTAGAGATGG
Assay: ELISA, coated antigen, antibody at 1000 ng/ml
Description: as §1, §2, §3

Point of comparison: B2, OD detection value 0.007 OD450 nm-650 nm. Against it:
- B1 — higher, 0.008 OD450 nm-650 nm
- B3 — the same, 0.007 OD450 nm-650 nm

Molecular target: T4, Nectin-like-1 (UniProt Q8N126 25-330, limits assumed)
T4 construct: Bought recombinant protein; also called CADM3; IgSF4B
T4 sequence (looked up): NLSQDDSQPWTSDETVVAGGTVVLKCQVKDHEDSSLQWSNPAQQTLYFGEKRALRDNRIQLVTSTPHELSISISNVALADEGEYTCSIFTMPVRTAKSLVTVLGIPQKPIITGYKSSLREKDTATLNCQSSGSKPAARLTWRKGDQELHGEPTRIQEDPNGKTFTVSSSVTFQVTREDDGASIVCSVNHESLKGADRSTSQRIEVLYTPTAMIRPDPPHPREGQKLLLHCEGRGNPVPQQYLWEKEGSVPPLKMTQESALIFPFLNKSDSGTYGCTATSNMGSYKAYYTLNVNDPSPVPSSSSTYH
Assay: ELISA, coated antigen, antibody at 1000 ng/ml
Description: as §1, §2, §3

Point of comparison: B1, OD detection value 0.008 OD450 nm-650 nm. Against it:
- B2 — higher, 0.01 OD450 nm-650 nm
- B3 — lower, 0.007 OD450 nm-650 nm

Molecular target: T5, Nectin-like-5 (UniProt P15151 21-343)
T5 construct: Bought recombinant protein; also called CD155; PVR
T5 sequence (looked up): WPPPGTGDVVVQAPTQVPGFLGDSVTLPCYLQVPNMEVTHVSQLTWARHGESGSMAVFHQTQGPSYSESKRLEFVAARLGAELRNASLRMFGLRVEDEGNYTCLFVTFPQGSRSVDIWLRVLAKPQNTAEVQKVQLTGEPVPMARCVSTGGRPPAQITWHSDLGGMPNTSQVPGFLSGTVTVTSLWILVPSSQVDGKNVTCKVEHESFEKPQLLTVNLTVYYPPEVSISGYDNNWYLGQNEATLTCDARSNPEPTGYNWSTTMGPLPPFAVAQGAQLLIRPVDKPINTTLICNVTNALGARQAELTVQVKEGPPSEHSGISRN
Assay: ELISA, coated antigen, antibody at 1000 ng/ml
Description: as §1, §2, §3

Point of comparison: B1, OD detection value 0.008 OD450 nm-650 nm. Against it:
- B2 — the same, 0.008 OD450 nm-650 nm
- B3 — higher, 0.009 OD450 nm-650 nm

Molecular target: T6, Nectin-1 (UniProt Q15223 31-334, limits assumed)
T6 construct: Bought recombinant protein; also called CD111; PVRL-1
T6 sequence (looked up): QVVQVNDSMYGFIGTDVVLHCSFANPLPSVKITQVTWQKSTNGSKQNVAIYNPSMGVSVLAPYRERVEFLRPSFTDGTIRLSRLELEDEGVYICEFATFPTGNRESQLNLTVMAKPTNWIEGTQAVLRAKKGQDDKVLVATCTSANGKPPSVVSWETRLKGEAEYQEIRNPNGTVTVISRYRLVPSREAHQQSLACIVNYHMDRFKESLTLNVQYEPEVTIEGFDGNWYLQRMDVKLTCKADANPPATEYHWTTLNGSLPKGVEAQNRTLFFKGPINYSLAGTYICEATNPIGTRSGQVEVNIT
Assay: ELISA, coated antigen, antibody at 1000 ng/ml
Description: as §1, §2, §3

Point of comparison: B2, OD detection value 0.007 OD450 nm-650 nm. Against it:
- B1 — the same, 0.007 OD450 nm-650 nm
- B3 — lower, 0.006 OD450 nm-650 nm

Molecular target: T7, Nectin-like-3 (UniProt Q8N3J6 25-367, limits assumed)
T7 construct: Bought recombinant protein; also called CADM2; IgSF4D
T7 sequence (looked up): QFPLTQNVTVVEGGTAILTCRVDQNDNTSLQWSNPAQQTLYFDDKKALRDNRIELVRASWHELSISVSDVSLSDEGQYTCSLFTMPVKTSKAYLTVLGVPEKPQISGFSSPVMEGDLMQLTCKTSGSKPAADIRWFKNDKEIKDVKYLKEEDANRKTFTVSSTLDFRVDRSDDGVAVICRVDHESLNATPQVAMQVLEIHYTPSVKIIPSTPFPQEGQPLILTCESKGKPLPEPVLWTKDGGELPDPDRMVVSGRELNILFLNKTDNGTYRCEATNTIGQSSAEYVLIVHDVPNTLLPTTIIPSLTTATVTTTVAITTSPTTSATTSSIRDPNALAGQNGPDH
Assay: ELISA, coated antigen, antibody at 1000 ng/ml
Description: as §1, §2, §3

Point of comparison: B3, OD detection value 0.007 OD450 nm-650 nm. Against it:
- B1 — higher, 0.029 OD450 nm-650 nm
- B2 — higher, 0.008 OD450 nm-650 nm

Reference: patent publication US20260265354A1 (JIANGSU MABWELL HEALTH PHARMACEUTICAL R AND D, published 2026)
